Here are results for two molecules from PMC3683248 (Structure (London, England : 1993), 2009).

In assay [1] the target is T1, V3 peptide of HIV-1 clade B strain MN (HIV-1 clade B, isolate MN).
T1 chain: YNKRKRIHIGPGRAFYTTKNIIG
As to the kind of experiment: crystal structure.

The next assay has as its target T2, V3 peptide NY/5 (HIV-1 group M subtype B, isolate NY5, strain).
T2 chain: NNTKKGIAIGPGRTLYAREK
As to the kind of experiment: ELISA. For orientation: An ELISA detects its analyte on a solid surface through an enzyme-linked reagent.

B1: Fab fragment of human monoclonal antibody 537-10D (Fab, V domains shown)
VH: QVQLVQSGGGLVQPGGSLRLSCVASGFTFNNYWMSWVRQAPGKGLEWVANIKQDGNDKYYVDSVKGRFTISRDNAKNSLFLQMNSLRAEDTAVYFCAREFSSYTDHLEYYYDYYYMDVWGKGTTVTVSS
VL: QSALTQPASVSGSPGQSITISCTGTSTDVNGYNYVSWYQQYAGKAPKLIIFDVSKRPSGVSNRFSGSKSGDTASLTISGLQAEDEADYHCSSYTSSTPYVLFGGGTKLTVL
B1: in assay [1], the binding result is given as “binds”.

B2: human monoclonal antibody 447-52D (IgG3, lambda) (antibody, V domains shown)
VH: EVQLVESGGGLVKPGGSLRLTCVASGFTFSDVWLNWVRQAPGKGLEWVGRIKSRTDGGTTDYAASVKGRFTISRDDSKNTLYLQMNSLKTEDTAVYSCTTDGFIMIRGVSEDYYYYYMDVWGKGTTVTVSS
VL: QSVLTQPPSVSAAPGQKVTISCSGSSSNIGNNYVLWYQQFPGTAPKLLIYGNNKRPSGIPDRFSGSKSGTSATLGITGLQTGDEADYFCATWDSGLSADWVFGGGTKLTVL
For the molecule B2, the binding result in the assay with V3 peptide NY/5 is “binds”.
